Here are results for 6 substances from patent publication US12295987B2, “Method of using a GIP/GLP1 co-agonist for diabetes” (Eli Lilly and Company, priority 2018, dated 2025).

Numbered stars: 1 amine (or outer) side, 2 acyl side, 3 side chain; on linkers, the order of the positions; unused ones are H or OH. Square brackets hold non-standard residues; d marks the D form. Side chains are listed from the residue outwards. Ends that are not written are not given here. * marks the point of attachment. C20 diacid = O=C(O)CCCCCCCCCCCCCCCCCCC(=O)*; γGlu = O=C(O)[C@H](CCC(=O)[*:2])N[*:1]; AEEA = NCCOCCOCC(=O)O; Aib = CC(C)(N)C(=O)O

This assay deals with T1, human gastric inhibitory peptide receptor (hGIPR) (Homo sapiens, UniProt P48546).
T1 construct: expressed in transfected cells; host or cells: HEK293
T1 sequence (P48546 22-466): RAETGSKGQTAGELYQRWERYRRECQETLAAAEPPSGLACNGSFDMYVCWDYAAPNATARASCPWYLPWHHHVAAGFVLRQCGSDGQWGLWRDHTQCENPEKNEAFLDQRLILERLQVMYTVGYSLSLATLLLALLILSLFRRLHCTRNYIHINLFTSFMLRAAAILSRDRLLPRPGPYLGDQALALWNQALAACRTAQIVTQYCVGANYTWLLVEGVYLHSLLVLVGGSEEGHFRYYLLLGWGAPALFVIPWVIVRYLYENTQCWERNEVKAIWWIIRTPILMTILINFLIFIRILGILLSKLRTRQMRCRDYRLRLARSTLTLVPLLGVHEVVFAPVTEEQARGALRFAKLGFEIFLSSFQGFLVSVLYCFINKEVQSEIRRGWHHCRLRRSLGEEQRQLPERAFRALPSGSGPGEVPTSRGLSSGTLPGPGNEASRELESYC
Kind of assay: cAMP pharmacological functional assay in presence of 0.1% casein, hGIPR. It is filed as cell-based. Particulars: ratio of hGIPR to hGLP1R cAMP EC50 ratios.

Take “Y-Aib-EGTFTSDYSILLDKIAQ-Aib-AFIEYLIEGGPSSGAPPK((2-[2-(2-Amino-ethoxy)-ethoxy]-acetyl)2-(γGlu)-CO—(CH2)18—CO2H)S-NH2 (Y[Aib]EGTFTSDYSILLDKIAQ[Aib]AFIEYLIEGGPSSGAPPK([AEEA-AEEA-γGlu-C20 diacid])S-NH2; N-terminus assumed; SMILES CC[C@H](C)[C@H](NC(=O)[C@H](CCCCN)NC(=O)[C@H](CC(=O)O)NC(=O)[C@H](CC(C)C)NC(=O)[C@H](CC(C)C)NC(=O)[C@@H](NC(=O)[C@H](CO)NC(=O)[C@H](Cc1ccc(O)cc1)NC(=O)[C@H](CC(=O)O)NC(=O)[C@H](CO)NC(=O)[C@@H](NC(=O)[C@H](Cc1ccccc1)NC(=O)[C@@H](NC(=O)CNC(=O)[C@H](CCC(=O)O)NC(=O)C(C)(C)NC(=O)[C@@H](N)Cc1ccc(O)cc1)[C@@H](C)O)[C@@H](C)O)[C@@H](C)CC)C(=O)N[C@@H](C)C(=O)N[C@@H](CCC(N)=O)C(=O)NC(C)(C)C(=O)N[C@@H](C)C(=O)N[C@@H](Cc1ccccc1)C(=O)N[C@H](C(=O)N[C@@H](CCC(=O)O)C(=O)N[C@@H](Cc1ccc(O)cc1)C(=O)N[C@@H](CC(C)C)C(=O)N[C@H](C(=O)N[C@@H](CCC(=O)O)C(=O)NCC(=O)NCC(=O)N1CCC[C@H]1C(=O)N[C@@H](CO)C(=O)N[C@@H](CO)C(=O)NCC(=O)N[C@@H](C)C(=O)N1CCC[C@H]1C(=O)N1CCC[C@H]1C(=O)N[C@@H](CCCCNC(=O)COCCOCCNC(=O)COCCOCCNC(=O)CC[C@H](NC(=O)CCCCCCCCCCCCCCCCCCC(=O)O)C(=O)O)C(=O)N[C@@H](CO)C(N)=O)[C@@H](C)CC)[C@@H](C)CC) [Peptide 47]”: the “[hGIPR/hGLP1R] EC50 Ratio” value was 7.35.
The value for “Y-Aib-EGTFTSDYSILLDKIAQ-Aib-AFIEYLIEGGPSSGAPPPK((2-[2-(2-Amino-ethoxy)-ethoxy]-acetyl)2-(γGlu)-CO—(CH2)18—CO2H)—NH2 (Y[Aib]EGTFTSDYSILLDKIAQ[Aib]AFIEYLIEGGPSSGAPPPK([AEEA-AEEA-γGlu-C20 diacid])-NH2; N-terminus assumed; SMILES CC[C@H](C)[C@H](NC(=O)[C@H](CCCCN)NC(=O)[C@H](CC(=O)O)NC(=O)[C@H](CC(C)C)NC(=O)[C@H](CC(C)C)NC(=O)[C@@H](NC(=O)[C@H](CO)NC(=O)[C@H](Cc1ccc(O)cc1)NC(=O)[C@H](CC(=O)O)NC(=O)[C@H](CO)NC(=O)[C@@H](NC(=O)[C@H](Cc1ccccc1)NC(=O)[C@@H](NC(=O)CNC(=O)[C@H](CCC(=O)O)NC(=O)C(C)(C)NC(=O)[C@@H](N)Cc1ccc(O)cc1)[C@@H](C)O)[C@@H](C)O)[C@@H](C)CC)C(=O)N[C@@H](C)C(=O)N[C@@H](CCC(N)=O)C(=O)NC(C)(C)C(=O)N[C@@H](C)C(=O)N[C@@H](Cc1ccccc1)C(=O)N[C@H](C(=O)N[C@@H](CCC(=O)O)C(=O)N[C@@H](Cc1ccc(O)cc1)C(=O)N[C@@H](CC(C)C)C(=O)N[C@H](C(=O)N[C@@H](CCC(=O)O)C(=O)NCC(=O)NCC(=O)N1CCC[C@H]1C(=O)N[C@@H](CO)C(=O)N[C@@H](CO)C(=O)NCC(=O)N[C@@H](C)C(=O)N1CCC[C@H]1C(=O)N1CCC[C@H]1C(=O)N1CCC[C@H]1C(=O)N[C@@H](CCCCNC(=O)COCCOCCNC(=O)COCCOCCNC(=O)CC[C@H](NC(=O)CCCCCCCCCCCCCCCCCCC(=O)O)C(=O)O)C(N)=O)[C@@H](C)CC)[C@@H](C)CC) [Peptide 48]” was 8.93.
The value for “Y-Aib-EGTFTSDYSILLDKIAQ-Aib-AFIEYLIK((2-[2-(2-Amino-ethoxy)-ethoxy]-acetyl)2-(γGlu)-CO—(CH2)18—CO2H)GG-NH2 (Y[Aib]EGTFTSDYSILLDKIAQ[Aib]AFIEYLIK([AEEA-AEEA-γGlu-C20 diacid])GG-NH2; N-terminus assumed; SMILES CC[C@H](C)[C@H](NC(=O)[C@H](CCCCN)NC(=O)[C@H](CC(=O)O)NC(=O)[C@H](CC(C)C)NC(=O)[C@H](CC(C)C)NC(=O)[C@@H](NC(=O)[C@H](CO)NC(=O)[C@H](Cc1ccc(O)cc1)NC(=O)[C@H](CC(=O)O)NC(=O)[C@H](CO)NC(=O)[C@@H](NC(=O)[C@H](Cc1ccccc1)NC(=O)[C@@H](NC(=O)CNC(=O)[C@H](CCC(=O)O)NC(=O)C(C)(C)NC(=O)[C@@H](N)Cc1ccc(O)cc1)[C@@H](C)O)[C@@H](C)O)[C@@H](C)CC)C(=O)N[C@@H](C)C(=O)N[C@@H](CCC(N)=O)C(=O)NC(C)(C)C(=O)N[C@@H](C)C(=O)N[C@@H](Cc1ccccc1)C(=O)N[C@H](C(=O)N[C@@H](CCC(=O)O)C(=O)N[C@@H](Cc1ccc(O)cc1)C(=O)N[C@@H](CC(C)C)C(=O)N[C@H](C(=O)N[C@@H](CCCCNC(=O)COCCOCCNC(=O)COCCOCCNC(=O)CC[C@H](NC(=O)CCCCCCCCCCCCCCCCCCC(=O)O)C(=O)O)C(=O)NCC(=O)NCC(N)=O)[C@@H](C)CC)[C@@H](C)CC) [Peptide 73]” was 7.73; that for “Y-Aib-EGTFTSDYSILLDKIAQ-Aib-AFIEYLIK((2-[2-(2-Amino-ethoxy)-ethoxy]-acetyl)2-(γGlu)-CO—(CH2)18—CO2H)GGPSSGAPPPS-NH2 (Y[Aib]EGTFTSDYSILLDKIAQ[Aib]AFIEYLIK([AEEA-AEEA-γGlu-C20 diacid])GGPSSGAPPPS-NH2; N-terminus assumed; SMILES CC[C@H](C)[C@H](NC(=O)[C@H](CCCCN)NC(=O)[C@H](CC(=O)O)NC(=O)[C@H](CC(C)C)NC(=O)[C@H](CC(C)C)NC(=O)[C@@H](NC(=O)[C@H](CO)NC(=O)[C@H](Cc1ccc(O)cc1)NC(=O)[C@H](CC(=O)O)NC(=O)[C@H](CO)NC(=O)[C@@H](NC(=O)[C@H](Cc1ccccc1)NC(=O)[C@@H](NC(=O)CNC(=O)[C@H](CCC(=O)O)NC(=O)C(C)(C)NC(=O)[C@@H](N)Cc1ccc(O)cc1)[C@@H](C)O)[C@@H](C)O)[C@@H](C)CC)C(=O)N[C@@H](C)C(=O)N[C@@H](CCC(N)=O)C(=O)NC(C)(C)C(=O)N[C@@H](C)C(=O)N[C@@H](Cc1ccccc1)C(=O)N[C@H](C(=O)N[C@@H](CCC(=O)O)C(=O)N[C@@H](Cc1ccc(O)cc1)C(=O)N[C@@H](CC(C)C)C(=O)N[C@H](C(=O)N[C@@H](CCCCNC(=O)COCCOCCNC(=O)COCCOCCNC(=O)CC[C@H](NC(=O)CCCCCCCCCCCCCCCCCCC(=O)O)C(=O)O)C(=O)NCC(=O)NCC(=O)N1CCC[C@H]1C(=O)N[C@@H](CO)C(=O)N[C@@H](CO)C(=O)NCC(=O)N[C@@H](C)C(=O)N1CCC[C@H]1C(=O)N1CCC[C@H]1C(=O)N1CCC[C@H]1C(=O)N[C@@H](CO)C(N)=O)[C@@H](C)CC)[C@@H](C)CC) [Peptide 37]” was 9.98.
The value for “Y-Aib-EGTFTSDYSILLDKIAQ-Aib-AFIK((2-[2-(2-Amino-ethoxy)-ethoxy]-acetyl)2-(γGlu)-CO—(CH2)18—CO2H)YLIEGGPSSGAPPPS-NH2 (Y[Aib]EGTFTSDYSILLDKIAQ[Aib]AFIK([AEEA-AEEA-γGlu-C20 diacid])YLIEGGPSSGAPPPS-NH2; N-terminus assumed; SMILES CC[C@H](C)[C@H](NC(=O)[C@H](CCCCN)NC(=O)[C@H](CC(=O)O)NC(=O)[C@H](CC(C)C)NC(=O)[C@H](CC(C)C)NC(=O)[C@@H](NC(=O)[C@H](CO)NC(=O)[C@H](Cc1ccc(O)cc1)NC(=O)[C@H](CC(=O)O)NC(=O)[C@H](CO)NC(=O)[C@@H](NC(=O)[C@H](Cc1ccccc1)NC(=O)[C@@H](NC(=O)CNC(=O)[C@H](CCC(=O)O)NC(=O)C(C)(C)NC(=O)[C@@H](N)Cc1ccc(O)cc1)[C@@H](C)O)[C@@H](C)O)[C@@H](C)CC)C(=O)N[C@@H](C)C(=O)N[C@@H](CCC(N)=O)C(=O)NC(C)(C)C(=O)N[C@@H](C)C(=O)N[C@@H](Cc1ccccc1)C(=O)N[C@H](C(=O)N[C@@H](CCCCNC(=O)COCCOCCNC(=O)COCCOCCNC(=O)CC[C@H](NC(=O)CCCCCCCCCCCCCCCCCCC(=O)O)C(=O)O)C(=O)N[C@@H](Cc1ccc(O)cc1)C(=O)N[C@@H](CC(C)C)C(=O)N[C@H](C(=O)N[C@@H](CCC(=O)O)C(=O)NCC(=O)NCC(=O)N1CCC[C@H]1C(=O)N[C@@H](CO)C(=O)N[C@@H](CO)C(=O)NCC(=O)N[C@@H](C)C(=O)N1CCC[C@H]1C(=O)N1CCC[C@H]1C(=O)N1CCC[C@H]1C(=O)N[C@@H](CO)C(N)=O)[C@@H](C)CC)[C@@H](C)CC) [Peptide 34]” was 10.03; that for “Y-Aib-EGTFTSDYSILLDKIAQ-Aib-AFK((2-[2-(2-Amino-ethoxy)-ethoxy]-acetyl)2-(γGlu)-CO—(CH2)18—CO2H)EYLIEGGPSSGAPPPS-NH2 (Y[Aib]EGTFTSDYSILLDKIAQ[Aib]AFK([AEEA-AEEA-γGlu-C20 diacid])EYLIEGGPSSGAPPPS-NH2) [Peptide 33]” was 8.67.
